Experiment: Aldol cleavage reaction of fructose 1,6-bisphosphate, coupled with TIM/G3PDH, NADH 340 nm
Format: biochemical
Conditions: F1,6P2 cleaved, 37° C., 30 minutes, pH 8.0
Method: The aldolase activity of the human 35 kd protein was determined as follows, according to the method described in a reference (Novel Biochemistry Experiment Lectures, Vol. 15, Metabolism Abnormality, p. 111, edit. Biochemical Society of Japan, publish. Tokyo Kagaku Dojin-sha, Sep. 22, 1992):
Conjugated with triose phosphate isomerase (TIM) and glycerol 3-phosphate dehydrogenase (G3PDH), the aldol cleavage reaction of fructose 1,6-bisphosphate (F1, 6P2) with the 35 kd protein was determined with NADH.
A reaction liquid having the composition mentioned below was prepared, and reacted at 37° C. for 30 minutes. The enzymatic reaction was monitored through the reduction in the 340 nm absorbance owing to the oxidation of NADH in the reaction liquid. The enzymatic reaction was indicated by the number of mols of F1, 6P2, per mg of the protein, cleaved within 1 minute (μmol/min/mg protein).
Reaction liquid 200 μl: 0.25 mM tris HCl buffer (pH 8.0), 0.15 M NaCl, 0.5 mM F1, 6P2 (from Sigma), human 35 kd protein, human liver TIM (500 μg/ml), rabbit skeletal muscle G3PDH (8 units/ml, from Sigma), 0.3 mM NADH (from Nakarai).
For comparison, a commercial product aldolase, Sigma's rabbit skeletal muscle aldolase (A-type aldolase), and an enzyme-free system were tested in the same manner.

B1: Human 35 kd protein: novel 35 kd protein, amino acid sequence SEQ ID NO: 2, expressed in E. coli and purified (protein, listed as Homo sapiens)
chain: MLGPQVWSSVRQGLSRSLSRNVGVWASGEGKKVDIAGIYPPVTTPFTATAEVDYGKLEENLHKLGTFPFRGFVVQGSNGEFPFLTSSERLEVVSRVRQAMPKNRLLLAGSGCESTQATVEMTVSMAQVGADAAMVVTPCYYRGRMSSAALIHHYTKVADLSPIPVVLYSVPANTGLDLPVDAVVTLSQHPNIVGMKDSGGDVTRIGLIVHKTRKQDFQVLAGSAGFLMASYALGAVGGVCALANVLGAQVCQLERLCCTGQWEDAQKLQHRLIEPNAAVTRRFGIPGLKKIMDWFGYYGGPCRAPLQELSPAEEEALRMDFTSNGWL
Aldolase Activity (μmol/min/mg protein): 0.0034 μmol/min/mg protein
